Data from patent publication US9260507B2, “Peptide promoting cell adhesion and migration” (Symatese, priority 2009, dated 2016).
Ends that are not written are not given here. * marks the point of attachment. Biotin = O=C1N[C@H]2[C@H](CS[C@H]2CCCCC(=O)*)N1

T1: syndecan-1 (Homo sapiens, UniProt P18827)
T1 construct: endogenous in cells; host or cells: primary normal human keratinocytes from foreskin biopsies
T1 sequence (P18827 23-310): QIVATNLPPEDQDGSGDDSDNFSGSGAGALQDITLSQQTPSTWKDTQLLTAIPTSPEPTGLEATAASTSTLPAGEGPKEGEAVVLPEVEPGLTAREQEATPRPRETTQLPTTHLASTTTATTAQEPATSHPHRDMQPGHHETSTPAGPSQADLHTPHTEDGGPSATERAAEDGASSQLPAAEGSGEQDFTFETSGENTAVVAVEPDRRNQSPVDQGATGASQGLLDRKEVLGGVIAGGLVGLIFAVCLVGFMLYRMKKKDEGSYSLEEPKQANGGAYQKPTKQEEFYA

T2: syndecan-1 from lysates of normal human keratinocytes or normal human fibroblasts (human, UniProt P18827 23-310, limits assumed, carries heparan sulphate and chondroitin sulphate chains during binding; stripped with heparitinase I and chondroitinase ABC before the immunoblot)
T2 construct: Endogenous proteoglycan of cell lysates; also called syndecan-1 receptor
T2 sequence (looked up): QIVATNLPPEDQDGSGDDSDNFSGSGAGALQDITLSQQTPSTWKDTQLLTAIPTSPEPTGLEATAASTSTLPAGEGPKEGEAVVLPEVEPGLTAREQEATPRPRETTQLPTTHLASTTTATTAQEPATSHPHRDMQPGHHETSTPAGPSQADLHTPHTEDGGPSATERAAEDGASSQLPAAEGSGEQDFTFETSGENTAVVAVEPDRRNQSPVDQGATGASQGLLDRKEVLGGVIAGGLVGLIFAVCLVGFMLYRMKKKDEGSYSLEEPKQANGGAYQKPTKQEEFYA


Experiments:
[1] = test system: HT1080 cells; assay: Cell adhesion test (crystal violet colorimetric) on immobilised peptide, HT1080 cells; format: cell-based, Human; conditions: microscopy, FIG. 6B
Procedure: (A, B) Dose-dependent adhesion of normal human keratinocytes and cells of the HT1080 strain to the peptide KKLRIKSKEK (SEQ ID NO: 1) and to the LG4/5 protein. The peptide (A) and the protein LG4/5 (B) were immobilised on 96-well plates at the concentrations indicated on the abscissa. 6·10^4 cells were deposited in each well and the plates were incubated at 37° C. for 1 hour. After washing, the adherent cells were fixed and cell adhesion was measured as described in the methodology section. (C) Observation of normal human keratinocytes and HT1080 cells adhering to KKLRIKSKEK peptide (SEQ ID NO: 1) and to the LG4/5 protein. The observation was made with a Zeiss Axiovert 40 microscope equipped with a PlasDic interference unit. 50 μm bar.
(A) A decreasing range of peptides KKLRIKSKEK (SEQ ID NO: 1) and NSFMALYLSKGR (SEQ ID NO: 21) was immobilised in 96-well Microlon plates and the amount actually adsorbed was determined by protein assay with reference to a corresponding range of peptides made extemporaneously. The quantities of peptide tested are indicated on the abscissa of the graph. 6·10^4 cells were deposited in each well and the plates were incubated at 37° C. for 1 hour. After washing, the adherent cells were fixed and cell adhesion was measured as described in the methodology section. […]

[2] = biological target: T1, syndecan-1; assay: Affinity chromatography (pull-down) with peptide-coated beads and syndecan-1 immunodetection; format: binding; conditions: lysate of normal human keratinocytes, 2 mg; immunoblotting with antibody H174
Procedure: (A) A lysate of normal human keratinocytes was prepared as described in the Materials and Methods section and 2 mg of the lysate were incubated with neutravidin beads not coated or coated with the biotinylated peptides KKLRIKSKEK (SEQ ID NO: 1), PSGKPKSLP (SEQ ID NO: 19) and TSVTPKQSL (SEQ ID NO: 20). After washing, the material bound to the beads was digested with a mixture of heparitinase I and chondroitinase ABC to release the protein part of the syndecan-1 from the glycosaminoglycans. The samples were then analysed by SDS PAGE electrophoresis in an 8% acrylamide gel under non-reducing conditions and by immunoblotting with polyclonal anti-syndecan antibody H174. (B) A lysate of normal human keratinocytes was prepared and 2 mg of the lysate were incubated with neutravidin beads not coated or coated with the biotinylated peptide KKLRIKSKEK (SEQ ID NO: 1), or with sepharose beads coated with the whole LG4/5 fragment. After washing, the material bound to the beads was digested with a mixture of heparitinase I and chondroitinase ABC to release the protein part of the syndecan-1 from the glycosaminoglycans. The samples were then analysed by SDS PAGE electrophoresis in an 8% acrylamide gel under non-reducing conditions and by immunoblotting with polyclonal anti-syndecan antibody H174. (A, B) The position of molecular weight markers is shown on the left.
(§1) A series of point mutations was introduced into the peptide KKLRIKSKEK (SEQ ID NO: 1) by successively replacing each amino acid by an alanine (A). […] The samples were then analysed by SDS PAGE electrophoresis in an 8% acrylamide gel under non-reducing conditions and by immunoblotting with polyclonal anti-syndecan antibody H174. […]
as §1, with “point or multiple” for “point”, “by” for “by successively”, “one or more lysines (K)” for “each amino acid”, “a glutamine (Q).” for “an alanine (A).”

[3] = test system: normal human keratinocytes; assay: Cell viability test (XTT); conditions: 100 to 1 μg/ml, medium renewed every two days (repeated twice)
Procedure: NHKs were seeded in 96-well plates at 10^4 cells per well. After 24 hours, the culture media were removed and replaced with KBM-2 medium containing the concentrations of peptide [sequence] (SEQ ID NO: 1) (upper curve) or LG4/5 protein (lower curve) shown. After 48 h of contact at 37° C. the media were removed and this step was repeated twice. After 48 h of contact at 37° C. the media were replaced by XTT reagent. The plates were then placed in an incubator at 37° C. and the absorption was read after 6 hours. Controls with neither peptide nor protein were made on the same plate.
The effect of the peptide on the cell viability of the normal human keratinocytes was analysed using a colorimetric assay (XTT Cell Proliferation Kit, Roche Diagnostics, Meylan, France). A control with the LG4/5 protein was carried out in parallel. The chemical reaction of the test is based on the production of NADPH in living cells reducing yellow tetrazolium XTT salts to orange formazan salts. Absorption at 490 nm is measured using an ELISA plate reader. […] In this case, cell viability was calculated from the formula: % viability=(Abs. cells with peptide/Abs. control cells)×100.

[4] = biological target: T2, syndecan-1 from lysates of normal human …; assay: pull-down from normal human keratinocyte lysate, immunoblot with H174
Procedure: To identify the nature of the cell receptor binding to the peptide […] (SEQ ID NO: 1), affinity chromatography or 'pull-down' assays were performed by incubating beads coated with peptides with cell lysates. Lysates of primary keratinocytes or fibroblasts were made using a lysis buffer of 1% triton X-100 in PBS, pH 7.5, containing N-ethylmaleimide and phenylmethylsulphonylfluoride 50 mM. The wild type peptide […] (SEQ ID NO: 1) and the mutated peptides were bound to biotin at their amino-terminal ends and 100 µg of each biotinylated peptide were attached to agarose-neutravidin beads (Perbio Science, Bezons, France) by incubation for 16 hours at +4° C. The beads were then incubated with 2 mg of cell lysate for 2 hours at +4° C. After washing 3 times with the lysis buffer, the beads were transferred into a digestion buffer (20 mM sodium acetate, 5 mM CaCl2, pH 7.0) containing 8 mU/ml heparitinase I and 50 mU/ml of chondroitinase ABC (Seikagaku America, Coger, Paris, France) for 2 hours at 25° C. This treatment strips the protein part of syndecan-1 of glycosaminoglycans, making it easier to analyse by immunoblotting. The samples were then analysed by SDS PAGE electrophoresis in an 8% acrylamide gel under non-reducing conditions and by immunoblotting with polyclonal anti-syndecan antibody H174 (Santa Cruz Biotechnology, Le Perray en Yvelines, France).

| Molecule | Binding of syndecan-1 to the biotinylated peptide on beads [2] | binding result [4] | other results |
| --- | --- | --- | --- |
| NSFMALYLSKGR |  |  | Morphology of HT1080 cells adhering to the peptide [1]: no cytoplasmic prolongations were noted |
| TSVTPKQSL | did not retain the syndecan-1 |  |  |
| PSGKPKSLP | did not retain the syndecan-1 |  |  |
| KKLRIKSKEK [KKLRIKSKEK] |  |  | Cytotoxic effect on epidermal keratinocytes (percentage of viable cells vs controls) [3]: neither peptide KKLRIKSKEK (SEQ ID NO: 1) nor protein LG4/5 has any long-term cytotoxic effect |
| KKLRLRSKER [M2, from the murine laminin alpha3 chain] | proved capable of binding syndecan-1 |  |  |
| TSVTPKQSL (also: biotinylated) [biotinylated peptide TSVTPKQSL (SEQ ID NO: 20)] |  | no binding |  |
| Biotin-KKLRIKAKEK [mutated peptide A7 (alanine in place of amino acid 7 of …)] |  | no binding |  |
| Biotin-AKLRIKSKEK [mutated peptide A1 (alanine in place of amino acid 1 of …)] |  | no binding |  |
| Biotin-KKLAIKSKEK [mutated peptide A4 (alanine in place of amino acid 4 of …)] |  | no binding |  |
| PSGKPKSLP (also: biotinylated) [biotinylated peptide PSGKPKSLP (SEQ ID NO: 19)] |  | no binding |  |
